{"source": "the DeepSol protein solubility set", "data": [{"experiment": "soluble on expression in E. coli; label from the status in PepcDB or PDB records", "values": [{"sequence": "MGSDKIHHHHHHMWKELVESISNDMDNVDECFRPTHFWRMGAEYLQQDLDTYGITKFRSLPSTLGYFVPTYLFNGMITEPKKYAELASRCQDIVVTPKAKLFMTDFLSGESQARADFRVYLASQSNRAPYTEHFSESKVGEPVEHFEFEGRNYSRSSLNYLLGINFLKQHISDLSVKTVVEIGGGFGSLGEILLSDERNDTFYINVDIPPTCIFSTFYLQSVFGQSHVADYSVLSKQALVIDDLRSKHKAAIMCPWQLPSLEGKIDLFVNFISFQEMEPDIVENYLSEIDRLQSTYILLRNLREGKQLAHDDSQVGVKKAIKSDDYDKFLPDYELLATNVLPFGYQTIDGFHSELRLYRRKQPKLG", "soluble on expression in E. coli": "not soluble"}, {"sequence": "MARNAEKAMTALARFRQAQLEEGKVKERRPFLASECTELPKAEKWRRQIIGEISKKVAQIQNAGLGEFRIRDLNDEINKLLREKGHWEVRIKELGGPDYGKVGPKMLDHEGKEVPGNRGYKYFGAAKDLPGVRELFEKEPLPPPRKTRAELMKAIDFEYYGYLDEDDGVIVPLEQEYEKKLRAELVEKWKAEREARLARGEKEEEEEEEEEINIYAVTEEESDEEGSQEKGGDDSQQKFIAHVPVPSQQEIEEALVRRKKMELLQKYASETLQAQSEEARRLLGY", "soluble on expression in E. coli": "soluble"}, {"sequence": "MGSDKIHHHHHHMDKRNSCYLCFGFQSRILARESALMDTQSLQAFLAVADHGSFSLAAEQLHLTQPAVSKRIAGLEGQVGAQLFDRLNRRVTLTEAGRTLLPRARQILVMFDDSRRALSNLSGDISGSLTMATSHHVGLHRLPPLLKAYTQAYPDVRMDMRFLDSEQAYQGVLDGDLELAVVTLAPVPDPALTVVPVWIDQLRFVCGREHALAGRDTVALSALSDYDAVLPGHLTFTRGIVVDTFARDGLQVNVSLSTNYLETLKMMVAIGLGWSVLPETMIDDEIEVIPIDHRPIQRPLGYLFHKSRTLSNAARAMLEMLDAARDTTARQWV", "soluble on expression in E. coli": "not soluble"}, {"sequence": "MSDVMADRTPPHNIEAEQAVLGAILIDQDALTSASELLVPDSFYRTKHQKIFEVMLGLSDKGEPIDLVMMTSAMADQGLLEEVGGVSYLAELAEVVPTAANVEYYARIIAEKALLRRLIRTATHIVSDGYEREDDVDGLLNEAEKKILEVSHQTNAKAFQNIKDVLVDAYDKIELLHNQKGEVTGIPTGFTELDKMTAGFQRNDLIIVAARPSVGKTAFSLNIAQNVATKTDENVAIFSLEMGADQLVMRMLCAEGNIDAQRLRTGSLTSDDWAKLTMAMGSLSNAGIYIDDTPGIKVNEIRAKCRRLKQEQGLGMILIDYLQLIQGSGKSGENRQQEVSEISRTLKGIARELQVPVIALSQLSRGVESRQDKRPMMSDIRESGSIEQDADIVAFLYREDYYDRETENKNTIEIIIAKQRNGPVGSVELAFVKEFNKFVNLERRFEDGHAPPA", "soluble on expression in E. coli": "not soluble"}, {"sequence": "MGSDKIHHHHHHMDIKLKDFEGPLDLLLHLVSQYKVDIYEVPIVEVIEQYLNYIETLQVMKLEVAGDYMLMASQLMLIKSRRLLPKVVEHIEEDLEQDLLEKIEEYSRFKAVSQALAKQHDQRAKWYSKPKQELIFEDAILQEDKTVMDLFLAFSNIMAAKRAVLKNNHTVIERDDYKIEDMMASIKQRLEKENVIRLSAIFEECQTLNEVISIFLASLELIKLHVVFVEQLSNFGAIILRKEKK", "soluble on expression in E. coli": "not soluble"}, {"sequence": "MAQLYFYYSAMNAGKSTALLQSSYNYQERGMRTVVYTAEIDDRFGAGKVSSRIGLSSPAKLFNQNSSLFDEIRAEHEQQAIHCVLVDECQFLTRQQVYELSEVVDQLDIPVLCYGLRTDFRGELFIGSQYLLAWSDKLVELKTICFCGRKASMVLRLDQAGRPYNEGEQVVIGGNERYVSVCRKHYKEALQVGSLTAIQERHRHD", "soluble on expression in E. coli": "not soluble"}, {"sequence": "MGSDKIHHHHHHMTKFLIDSLQPKLVAQFARIIDRKQLAQSYLFVGPKGAGKLALAEWIALRLFCQNVQDGAPCGQCPECERILNHNHPDVMVVKTETQSIKVDDIRGLKQEMSKTGVEGNQRVFVVEDADKMTAGAANSLLKFFEEPVPGMTVILTATSKNQLLPTILSRAQVITFQSPDRSAVIAKLEEGGATSQMARVAGRLTGNVADAQALLASATFQDRVTKVFQLLERLADHDPESFVRVQTQLLPIAKDADSQRQVLALIGLAYADALNQHFQVTSMQQLDLPAIGVLAQRSSEQLTTALQAILTAQVRLSQNVTFQSATEQLMLKLLEG", "soluble on expression in E. coli": "not soluble"}, {"sequence": "GPYATEVELREMVDIAQEHGIVEIEERRMIQSVFDLASTTVRQVMVPRPEMIWIESGKTAGQATALCVRSGHSRIPVIGENVDDIIGIVYLKDLVQKTYYATDGGKSVLVDEVMREATFVPDSKSLDALLQEMQEDHKHIAILVDEYGGVAGLISIEDILEEIVGEIADEYDAREVAPIEKIGDRTYRVVSRL", "soluble on expression in E. coli": "not soluble"}, {"sequence": "DFFRSAIDQAPSFMAVLDGRDHIFRIVNQAYHQLVGRRDLLNRTVREALPELDGQGFFELLDEVFLTGLAFTRLAAPVLLRRGPEIERSFVDFIMCPLRGPDGQVRGVFVEGHDVT", "soluble on expression in E. coli": "not soluble"}, {"sequence": "MRPTDTSNFAPAEISKRKVRRVKANGRERARMHGLNNALDMLREYIPITTQHQKLSKIETLRLARNYIDALQRMLQTNEQPTPLEYAHTLANGLSQTTTNMLANLLQVQPRQLLPPSQFDIFSDPSHHQLHPSHPPPHSSFSSSSPSSSCSPPQYYYSPTQPSAAPLQGSCDPQYQQMYHQHSHQNTFNYSP", "soluble on expression in E. coli": "not soluble"}, {"sequence": "MSYSDYPSDIADYSSFDNMMADICNPSSSSSSNRKRQADPAPDNFAKIPAGMATQPLYFPIHYPVNSGWQSFDVNQVYNNHNMNQPGFGWVALPPPMPHNLQIPDQNSYKPRSGLPVPPPMAEFQDVNGIQQNPNEIFKNAPITSAMCTPESDISTSTNLTPDQDSAQLPLTEQELNEEKNFVVNIESPGKLAHYFLPNVESEQEPNEHIPYPYAKSLFPTFGVPVSSDGNVVAEVVDGRLPAVGTRSKYDITVDEIRRRCGAPEHMNQSALYCFFRKSKKREAINRVKQVLTVHNIPMRTMQRQRKVTCFSPFLEEEATALARDLDSISEEFLPINIIAQEMLEKLMSSGNNLDVCHRMLKNTTATITRVIKTLEVRQPKITGQEEKLKGNNLDLSYHNFSLITHGFGHPNSLSHYRSYLSIVERAVLLCEKIQNGQSLLSNEDVIPGQKPFERMSNEYFVEWQMNLYKKKLAKQMEEVEENKSQRGEHQQIHQHQLYQQHHTNTHPPMPLMPPSQMNLCPPITPIPPQNVYYY", "soluble on expression in E. coli": "not soluble"}, {"sequence": "HLEDVKFMIVGLPDVGLVGAITGMHLIRSKDMSYTVGIDHYGALPPVVIMNRGRVLHPIRIYRSGDVAALITDVPILPAAIPSFSAAVVEYSRRRGIEYIISATGVGNPKRLEQEKPSLYWLASDKKASLLASSLRMASEPEQGIIVGPYAIILKEAMKKHVHNLVLLADSFIDIPDPEAAAVIVEGINSITGLNVSVDELIKQAEEIKLRMRDLMKETKAVMARMGKEMEYRAPILYT", "soluble on expression in E. coli": "not soluble"}, {"sequence": "MTGASRPPKSRRSAAAAPSPEGLTLDLERYVPAFITFIANKLSNSATAFYQGNFGVNVTEWRIMSLLAIEPGISAARICQVIGFNKGPVSRTLSDMQSRGLITIRVDPNDARTHSISLTGKGRATHDKVIVAALERERKLMSCLSADEQEVLIDLLRRLHNNLGAVTGETT", "soluble on expression in E. coli": "not soluble"}, {"sequence": "YIKVPVLRLKPSEIHINLKLLKKTADYSSVSALQQTMLYLGRLLVQSGVNTLGVDAVAAFNAASIIDSYVLAPGSSLASSVTTFSAQNRGGGKYDRIPRG", "soluble on expression in E. coli": "not soluble"}, {"sequence": "MGSDKIHHHHHHMATPPFHYQHMFPLGPDKTEYYLLTKDYVSVSEFEGKPILKIEKEGLTAMANAAFRDVSFLLRRSHNEQVAKILSDPEASDNDKYVALTFLRNAEVSAKGKLPLCQDTGTAIIHGEKGQQVWTGYCDEEALSLGVYKTYTEENLRYSQNAPLTMYDEVNTKCNLPAQIDLEATEGMEYKFLCVTKGGGSANKTYLYQETKAVLNPATLVPFLVEKMKTLGTAACPPYHIAFVIGGTSAEKNLLTVKLASTHYYDELPTTGNEYGRAFRDVELEKQVLEEAYKIGLGAQFGGKYMAHDVRIIRLPRHGASCPIGLGVSCSADRNIKCKINKDGIWIEKMDDKPGELIPAELREAGEGDVVKIDLNQPMADILKELTKYPVATRLSLNGTIIVGRDIAHAKLKERLDRGEDLPQYIKDHPIYYAGPAKTPEGMACGSMGPTTAGRMDPYVDLFQSHGGSMIMLAKGNRSQQVTDACKKYGGFYLGSIGGPAAILAQNNIKSIECVEYPELGMEAIWKIEVEDFPAFILVDDKGNDFFKQLKPRCLGNCK", "soluble on expression in E. coli": "not soluble"}, {"sequence": "LTFSLNFATSSKDSYGTGWLIDWKGDENKPSNTDPFLIYLATNLHVVDALRNPQDYEPYNKDSNGQDYGNRDITHFFALGKYTD", "soluble on expression in E. coli": "not soluble"}, {"sequence": "MGSDKIHHHHHHMPETAHGVPVSTVKPDGAAMALKSKLLLIILDGVPYRNWRRLMGNLEGWVQSGEARVWKMRSVLPSTSACCYASIHTGVSPQVHGILSNENRFRVGQPDIFSEVSKAGGKTGAVTHSYWSEFFRSYPFDLVEDMEYDEPGGPITHGRFHTMTGYNARNQMTPSDVDLFATLTMLTKRHGIDYGILHTCTLDSMGHRFGNDCHEMDHAVYAMDGMLAAFLPGWIAAGYEVMVTADHGQTDRGHHGGHDDEMQDFALYYFGQGQGPETDTLLDQLQLAPTVLSRLGVPVPATMKAKPFLS", "soluble on expression in E. coli": "not soluble"}, {"sequence": "MDSGFTLRAPRNDKRRNPMPAILGTGEHRYRVVENFAKLPDGWQLTDVAAVAVDSLDRVYVFNRGAHPMVVLDREGNFLRSWGEGLFSRAHGLHIDADDNLYCTDDGDHTVRKCTSDGKVLLTIGIPAKPAPFMSGEPFHRCTHTALSPKGEIYVSDGYGNARVHKFTPDGKLIKSWGEPGTDPGQFNIVHNIATDSDGWVYVADRENHRVQVFNGEGKYETQWNNLHRPCALCCCGGRSPTFVIGELGPGLDINRNVPNLGPRLSIVDAKGNRIARLGGEEGPGVASGKFLAPHGIALDSKGDIYVGEVGVTNWATSFPDQEMPAVVRATRCLQKLERVRELEHHHHHH", "soluble on expression in E. coli": "not soluble"}, {"sequence": "RSPICHLFSAINSSPFKIAPEKEQDLKTIVDDKKIIISVVSEPGFNIRVRKNESNNSHEIVLTVASLEYIWAFSNFFWVFTQEYSKSQKNNDEHFDLTGKNRLKKSDELLKWARKNLQTTGCESWPKKCPKPEAYLQGSEDSQVASEIFLCAIAWILHHEISHVVLQHPLVTTAFSTQEEREADSHATKWILGNLYESAPELKKRALGIATAVLCIQSLEVENYFCLQNTHPAAYERIYSNISCYPVGNEELIEALCTVMLQYLFHGKNINVNLDGESFSSILGDLLCDISRLTSN", "soluble on expression in E. coli": "not soluble"}, {"sequence": "MGHHHHHHSHMTSELDIFVGNTTLIDEDVYRLWLDGYSVTDAVALRVRSGILEQTGATAAVLQSDTMDHYRTFHMLERLLHAPPKLLHQLIFQIPPSRQALLIERYYAFDEAFVREVLGKKLSKGTKKDLDDISTKTGITLKSCRRQFDNFKRVFKVVEEMRGSLVDNIQQHFLLSDRLARDYAAIVFFANNRFETGKKKLQYLSFGDFAFCAELMIQNWTLGAVGEAPTDP", "soluble on expression in E. coli": "not soluble"}, {"sequence": "SNAMKLALITDTSAYLPEAIENHEDVYVLDIPIIIDGKTYIEGQNLTLDQYYDKLAASKELPKTSQPSLAELDDLLCQLEKEGYTHVLGLFIAAGISGFWQNIQFLIEEHPNLTIAFPDTKITSAPQGNLVRNALMCSREGMDFDVIVNKIQSQIEKIEGFIVVNDLNHLVKGGRLSNGSAIIGNLLSIKPVLHFNEEGKIVVYEKVRTEKKALKRLAEIVKEMTADGEYDIAIIHSRAQDKAEQLYNLLAKAGLKDDLEIVSFGGVIATHLGEGAVAFGITPKN", "soluble on expression in E. coli": "soluble"}]}]}
